What was measured:
[1] = target: X. albilineans Cas8f–Cas5f heterodimer (Xanthomonas albilineans); experiment: ITC; as the standard ITC but with 500 mM NaCl instead of 150 mM
[2] = target: X. albilineans Cas8f(K248E)–Cas5f heterodimer (Xanthomonas albilineans); experiment: ITC; 250 μM AcrIF7 in the syringe titrated into 35 μM Cas8f–Cas5f in the cell; 20 mM Tris–HCl pH 7.5, 150 mM NaCl, 1 mM TCEP, 25°C; one-site binding model
[3] = target: X. albilineans Cas8f(K29E)–Cas5f heterodimer (Xanthomonas albilineans); experiment: as above
[4] = target: X. albilineans Cas8f–Cas5f heterodimer (Xanthomonas albilineans); experiment: as above
[5] = target: T1, X. albilineans Cas8f–Cas5f heterodimer (Xanthomonas albilineans); experiment: ITC; 500 mM NaCl
T1 chain 1: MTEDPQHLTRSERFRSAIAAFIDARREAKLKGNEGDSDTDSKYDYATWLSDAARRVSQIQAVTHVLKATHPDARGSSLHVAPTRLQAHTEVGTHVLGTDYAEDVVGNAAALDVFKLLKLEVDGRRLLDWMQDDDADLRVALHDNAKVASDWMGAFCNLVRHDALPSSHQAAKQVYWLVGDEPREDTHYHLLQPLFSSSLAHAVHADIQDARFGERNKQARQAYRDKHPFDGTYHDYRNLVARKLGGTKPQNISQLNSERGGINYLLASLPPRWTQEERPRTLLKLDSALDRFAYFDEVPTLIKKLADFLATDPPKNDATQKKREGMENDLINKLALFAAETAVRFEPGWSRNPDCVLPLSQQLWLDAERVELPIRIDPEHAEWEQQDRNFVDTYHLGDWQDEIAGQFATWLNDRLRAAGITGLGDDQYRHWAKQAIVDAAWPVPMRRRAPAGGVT
T1 chain 2: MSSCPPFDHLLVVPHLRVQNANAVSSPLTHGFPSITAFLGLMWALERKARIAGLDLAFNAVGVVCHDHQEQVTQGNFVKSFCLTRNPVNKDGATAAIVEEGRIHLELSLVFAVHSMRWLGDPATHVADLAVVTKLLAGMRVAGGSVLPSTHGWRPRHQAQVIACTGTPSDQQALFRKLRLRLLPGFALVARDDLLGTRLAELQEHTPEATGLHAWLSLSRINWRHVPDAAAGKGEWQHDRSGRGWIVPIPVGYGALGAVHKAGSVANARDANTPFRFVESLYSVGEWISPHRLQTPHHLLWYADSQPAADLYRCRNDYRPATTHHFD

## AcrIF7 (a.a. 1–67) (natural protein)
[1]
  fold reduction of the strength of the interaction at 500 mM NaCl against 150 mM NaCl: 2.7 fold
[2]
  Kd: 1870 nM
  dH: -16 kcal/mol
  stoichiometry N: 0.78
[3]
  Kd: 327 nM
  dH: -14.5 kcal/mol
  stoichiometry N: 0.83
[4]
  Kd: 46 nM
  dH: -17.1 kcal/mol
  stoichiometry N: 0.78

## AcrIF7 D13K (natural protein)
[4]
  Kd: 2450 nM
  dH: -14.2 kcal/mol
  stoichiometry N: 0.72

## AcrIF7 D28K/D29K (natural protein)
[4]
  Kd: 179 nM
  dH: -12.9 kcal/mol
  stoichiometry N: 0.75

## AcrIF7 D57K (natural protein)
[4]
  Kd: 333 nM
  dH: -12.7 kcal/mol
  stoichiometry N: 0.77

## AcrIF7 E18K (natural protein)
[4]
  Kd: 49 nM
  dH: -19.6 kcal/mol
  stoichiometry N: 0.88

## AcrIF7 E22K (natural protein)
[4]
  Kd: 50 nM
  dH: -15.6 kcal/mol
  stoichiometry N: 0.75

## AcrIF7 E33K/E34K (natural protein)
[4]
  Kd: 4850 nM
  dH: -9.5 kcal/mol
  stoichiometry N: 0.9

## AcrIF7 E46K/E47K (natural protein)
[4]
  Kd: 46 nM
  dH: -17 kcal/mol
  stoichiometry N: 0.8

B1: AcrIF7 (a.a. 1–67) (natural protein)
chain: MTTFTSIVTTNPDFGGFEFYVEAGQQFDDSAYEEAYGVSVPSAVVEEMNAKAAQLKDGEWLNVSHEA
[5]
  Kd: 124 nM
